± gives the uncertainty stated by the source.

This series in a line: amyloid nucleation score (Sup35N fusion, yeast selection) (log enrichment); library NNK3; higher = more nucleation; inactive = no reads after selection. The method in brief:
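Libraries of peptides of 20 random codons fused to Sup35N were expressed in psi-negative yeast and induced 24 hours with 100 μM copper sulfate. Selection was 7 days at 30°C on medium lacking adenine and uracil, and plasmid inserts were Illumina-sequenced before and after selection. Nucleation score is the DiMSum log enrichment of output over input reads, centred on the mode score of non-aggregating sequences, and sequences with under 100 input reads were left out.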
On to FVHKNPHHRFAQMCTKANCR, for which the amyloid nucleation score entry is “inactive”.

Consider LLMDGLIRFWS, for which the amyloid nucleation score result is “inactive”.

On to VCMEMLEHIMIWFNSVDT, for which the amyloid nucleation score result was “inactive”.

In the case of SFSLNRRWFNIGS, the amyloid nucleation score result is “inactive”.

As for TLLLIVDNGVNPSLKEMMLL, the amyloid nucleation score result was “inactive”.

Consider SFERGMSENLFIVGPGEFVG, for which the amyloid nucleation score entry is “inactive”.

Turning to IERLTCIYRSFESHLAGFVG, the amyloid nucleation score result is “inactive”.

Consider RSMTWFSQDYVSVHRVL, for which the amyloid nucleation score result was “inactive”.

For RSYLSEHSNYGAKSSYYGIF, the amyloid nucleation score entry was “inactive”.

As for VLDVVY, the amyloid nucleation score entry is “inactive”.

As to LFFHHVKLRH, the amyloid nucleation score entry was “inactive”.

CFYIKKSKVGLGHWINHV: the amyloid nucleation score entry was “inactive”.

Take NTNVVSDYIHHAF: the amyloid nucleation score entry is “inactive”.

For the substance WCFGYLHMNIV, the amyloid nucleation score result is “inactive”.

In the case of CFSYGMWNSLPRWLALN, the amyloid nucleation score entry is “inactive”.

LIMGTVVLIL came in with an amyloid nucleation score of 1.54 ± 0.073.

For LFSELKISSVWCDL, the amyloid nucleation score entry is “inactive”.

In turn, YFKSSFQKSLIDEVALKGWL came in with an amyloid nucleation score of 0.224 ± 0.54.

With TIIMR, the amyloid nucleation score result is “inactive”.

QLHTDYPFGACLFSCDGLDM: the amyloid nucleation score entry was “inactive”.

Regarding RMFMWENEMDLSTSRVKGYG, the amyloid nucleation score result is “inactive”.

Substance SIDHVLWYNIGRVGSCWSLR registered an amyloid nucleation score of -0.188 ± 0.27.

Turning to TVYSTVSRDMNDKHFAGSTG, the amyloid nucleation score result was “inactive”.

With NLRHCGCSALGTMTDVNVRG, the amyloid nucleation score was determined as 0.692 ± 0.2.

In the case of FLPQFDYVQIMVPCYCLEVV, the amyloid nucleation score result was “inactive”.

In the case of YANCLDNIPDRVQDMYSCFS, the amyloid nucleation score result was “inactive”.

On to WCLHNLVSMLRDQTSRVSFP, for which the amyloid nucleation score result was “inactive”.

For the substance FVYFNT, the amyloid nucleation score entry is “inactive”.

On to GNEWRWWVLRNLLSCFSIP, for which the amyloid nucleation score result is “inactive”.

Take WIPAMVYFEHNTS: the amyloid nucleation score entry is “inactive”.

As for SLLSRFIEEGASCRCTRDG, the amyloid nucleation score result is “inactive”.

On to LILIRAVSG, for which the amyloid nucleation score entry was “inactive”.

For RVKYL, the amyloid nucleation score result is “inactive”.

As for HYEVRGVLFAMPPCGNI, the amyloid nucleation score result was “inactive”.

Turning to WTQAGQIRMRKRSR, the amyloid nucleation score result was “inactive”.

Turning to RSGFRLLIWYRKQMICLCNL, the amyloid nucleation score entry is “inactive”.

As to TKADEHYESIYTLCCHFVSP, the amyloid nucleation score result was “inactive”.

In the case of RRHLITSVHQTLIVVGFDPR, the amyloid nucleation score result is “inactive”.

As for NTSISGSSM, the amyloid nucleation score entry was “inactive”.

RVLVWTFYEKAKNCAFCRGV: the amyloid nucleation score result is “inactive”.

Turning to MTLFVSDTVRSLGNGNWA, the amyloid nucleation score result was “inactive”.

For CQHGGCALQHHTYRCEVGAG, the amyloid nucleation score entry is “inactive”.

DGCGFIVTFVSAGVRSWLGI gave an amyloid nucleation score of 0.712 ± 0.29.

In the case of FAHEVLYSANT, the amyloid nucleation score entry is “inactive”.

The substance LLSVICLTSIHF came in with an amyloid nucleation score of 2.74 ± 0.067.

As to FYEHLVRSNFLSLRRMVRTV, the amyloid nucleation score result is “inactive”.

With SYRIRCYAVNITPIAMYIIC, the amyloid nucleation score result was “inactive”.

In the case of YFGDPVLNASLVIVLHLYWL, the amyloid nucleation score turned out to be 1.21 ± 0.078.

In the case of FDFASFGKWVVVRFKCKTFT, the amyloid nucleation score entry was “inactive”.

Take IPVCAWRWSG: the amyloid nucleation score result is “inactive”.

LSAIFLCLSVCLGLHCVGLP: the amyloid nucleation score entry was “inactive”.

As to VESCRKDTYNSWFFDCLGDR, the amyloid nucleation score result is “inactive”.

Consider LRHHSSSVAPVRVGILRCNS, for which the amyloid nucleation score result is “inactive”.

EVKDAWIMSYSLNYWQRLYM: the amyloid nucleation score entry is “inactive”.

As for MILTKSNSEVFEVGNKKLRV, the amyloid nucleation score entry is “inactive”.

As for VFRTSLLKSYFGFNMKCDNY, the amyloid nucleation score was determined as 0.039 ± 0.26.

For PSSKFVGGIS, the amyloid nucleation score result was “inactive”.

The substance CFVVNCHYFDFMDV showed an amyloid nucleation score of 2.51 ± 0.06.

As for YVITQQSSFSVTLYSSINFC, the amyloid nucleation score was 0.625 ± 0.33.

Turning to VIFSITANIRAQFLFYCYRV, the amyloid nucleation score is -0.083 ± 0.81.

For AVALY, the amyloid nucleation score entry was “inactive”.

On to NLTRGYISRKRMSCPQ, for which the amyloid nucleation score entry was “inactive”.

For EMLFPSRICLCIHDVILPRV, the amyloid nucleation score result was “inactive”.

In turn, VWVFKTNFVFRVQLGHSLGC yielded an amyloid nucleation score of 1.46 ± 0.094.

WFVNL yielded an amyloid nucleation score of 1.38 ± 0.15.

As for PDSKWVFRNAALMTETCIGR, the amyloid nucleation score result is “inactive”.

For RSRGWDWFEVSIIVRCSMWD, the amyloid nucleation score entry is “inactive”.

GVLQLNVIVTYFVMDMCSWL registered an amyloid nucleation score of 1.78 ± 0.095.

In the case of LGYDWRDVNNGK, the amyloid nucleation score result is “inactive”.

VLGYDGAGKVVIFDVNLAGL returned an amyloid nucleation score of 1.87 ± 0.083.

Turning to LGIRWLLACWVVENLDFPNI, the amyloid nucleation score is -0.719 ± 1.

With LDHYGLSLAHDVRRGVCCFW, the amyloid nucleation score worked out at 1.13 ± 0.14.

VCVKYAMTPVWSAGAARFHK: the amyloid nucleation score result was “inactive”.

For AMSIVERQGDVWLSYRKWNG, the amyloid nucleation score entry is “inactive”.

Take AFNVIRYVVWFSMVRASNAS: the amyloid nucleation score result was “inactive”.

As to TNRVIVSMRLYVMDLYYCRT, the amyloid nucleation score entry is “inactive”.

Take LYNRQVGKDANSFLYNRASQ: the amyloid nucleation score result was “inactive”.

WLFSTSI: the amyloid nucleation score result was “inactive”.

As for HLTIVDWSPRESSSWIMRFT, the amyloid nucleation score entry was “inactive”.

Substance TFLKGSLFCCYYTRDAVDYI returned an amyloid nucleation score of 2.64 ± 0.054.

With YLPFFEWRVQGRVFEVSMYY, the amyloid nucleation score result was “inactive”.

In the case of FWHENSIAELWICKTLLGKF, the amyloid nucleation score entry is “inactive”.

QTHMTFYVCMFRGTCNGNMC showed an amyloid nucleation score of 2.1 ± 0.051.

For YGPQGVGLMGSLIAVISFIR, the amyloid nucleation score was 1.12 ± 0.16.

For the substance PSNYWNEFYFCSSIHSCGE, the amyloid nucleation score was 3.28 ± 0.07.

With SLFYHTGRS, the amyloid nucleation score was found to be 0.459 ± 0.15.

With RETLS, the amyloid nucleation score entry is “inactive”.

In the case of SGGTEKRSKRAGLLLFRTEE, the amyloid nucleation score result is “inactive”.

With HSSMIIRLWLDVVVQIRGQ, the amyloid nucleation score was determined as 0.575 ± 0.28.

In the case of NAAGCSVSGCIG, the amyloid nucleation score result is “inactive”.

For the substance MHSISV, the amyloid nucleation score entry is “inactive”.

As for AYNSYELVRAL, the amyloid nucleation score entry was “inactive”.

YVNFFVKVSV: the amyloid nucleation score entry was “inactive”.

GGRLSLKESWKAGFSIAERF: the amyloid nucleation score result was “inactive”.

Consider INRHGCIGVHTLSLMLRPCV, for which the amyloid nucleation score result was “inactive”.

For TSDIFTSRYILAIDPRMNWV, the amyloid nucleation score entry was “inactive”.

For the substance FKKSLYVLSDFSVLYSMCSW, the amyloid nucleation score entry was “inactive”.

ASFYWECMYVHGDVFLCVWY showed an amyloid nucleation score of 1.79 ± 0.1.

WMYKTWHRI: the amyloid nucleation score result is “inactive”.

VWGIRFLLVWNRGHAGYSLN: the amyloid nucleation score result was “inactive”.

Take PRYFSRASSKNSRF: the amyloid nucleation score result is “inactive”.

With PTGMPYNLTWFFWHATMPLL, the amyloid nucleation score is -0.255 ± 0.33.

For the substance VDVDCYLLSKNM, the amyloid nucleation score entry was “inactive”.

As to VVLAMTHSYRNFKMFRDHYH, the amyloid nucleation score came out at 0.957 ± 0.12.

For LQDIPLFFCCVLFCVATMAL, the amyloid nucleation score entry is “inactive”.

Regarding SRQKINHQCCYKFCVVDYY, the amyloid nucleation score was 1.56 ± 0.091.

FISINTPPCLCMS: the amyloid nucleation score entry was “inactive”.

Consider VTPVFMIWAS, for which the amyloid nucleation score entry is “inactive”.

With CYELLESS, the amyloid nucleation score result was “inactive”.

As for TLCMVQRSRVVSLLSVGRIL, the amyloid nucleation score was -0.223 ± 0.55.

Turning to FGANHKQVSWWDRMLSGTVR, the amyloid nucleation score result is “inactive”.

With LRGVGDRIGNTSGISGLWPG, the amyloid nucleation score amounted to 0.759 ± 0.19.

The substance GSGVRGQRMSGKCR had an amyloid nucleation score of 0.164 ± 0.42.

For the substance TYYTSRYL, the amyloid nucleation score entry was “inactive”.

For VIDDHMFQRKRQMVLKKQLN, the amyloid nucleation score result was “inactive”.

The substance ECGFKKR gave an amyloid nucleation score of -0.383 ± 1.3.

FYLGRLSVNGRVVQRHNESM: the amyloid nucleation score entry was “inactive”.

Turning to TLMYFILYYIGLYPE, the amyloid nucleation score result is “inactive”.

As to CFTLFVSQYVNDLDDYKRNW, the amyloid nucleation score amounted to 1.34 ± 0.092.

Turning to RHSNDCMNFEVIILIDSCLE, the amyloid nucleation score entry was “inactive”.

For NMQVHFIMCARSRLQGNHVS, the amyloid nucleation score entry was “inactive”.

Regarding MICHDLRSFIM, the amyloid nucleation score result is “inactive”.

In the case of KWNCHLVLPLWIPGLVMMGR, the amyloid nucleation score entry was “inactive”.

Turning to ILDTEHYLMYKVSPAVASLS, the amyloid nucleation score entry is “inactive”.

Take NTVNWSFFVMVLSFSSRETV: the amyloid nucleation score result is “inactive”.

In turn, IGNAFFETRLVFGRH came in with an amyloid nucleation score of 1.86 ± 0.081.

Consider MELCTLMCHYVVYSVVNWTY, for which the amyloid nucleation score entry is “inactive”.

For the substance VVWLDNKDVLTWHARCLCPM, the amyloid nucleation score entry was “inactive”.

As to YRLCRGFNSFI, the amyloid nucleation score result was “inactive”.

Turning to PAMVCNPTQATRGKSRMVPL, the amyloid nucleation score result is “inactive”.

In the case of DYVRKWS, the amyloid nucleation score result is “inactive”.

For YFTFCDCLGQLMTRGRGCSV, the amyloid nucleation score result was “inactive”.

Source of the values: the supplement of paper PMC12042874.
